In general, stoichiometry N refers to the number of molecules, sites or subunits per partner or assembly.

The results in this text go back to PMC9136605.

The target in the assay is human lactate dehydrogenase C (LDHC), recombinant wild type with C-terminal His6-tag (human) (UniProt P07864).

human lactate dehydrogenase C (LDHC), recombinant wild type with C-terminal His6-tag, sequence (P07864 whole entry): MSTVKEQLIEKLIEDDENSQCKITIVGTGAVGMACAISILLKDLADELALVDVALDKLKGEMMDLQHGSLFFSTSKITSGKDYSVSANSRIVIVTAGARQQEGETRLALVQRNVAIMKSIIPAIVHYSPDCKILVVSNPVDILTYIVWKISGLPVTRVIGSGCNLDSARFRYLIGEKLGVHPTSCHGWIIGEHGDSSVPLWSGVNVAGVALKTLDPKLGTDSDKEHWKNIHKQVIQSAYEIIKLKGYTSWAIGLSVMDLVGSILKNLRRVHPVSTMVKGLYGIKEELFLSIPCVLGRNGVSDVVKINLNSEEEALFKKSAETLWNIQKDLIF

With “human lactate dehydrogenase C (LDHC), recombinant wild type with C-terminal His6-tag (from UniProt P07864 1-332) (enzyme)”, the stoichiometry N is 4.
